The results in this text go back to patent US20160222132A1 (IGM BIOSCIENES, published 2016).

The target of data set [1] is T1, Fc2b (human µ chain CH2 to CH4 with C291S, L352S, T354K, H395V and I397K mutations and tail piece deletion) (human, UniProt P01871 112-433).
T1 construct: also called Pc2b
T1 chain: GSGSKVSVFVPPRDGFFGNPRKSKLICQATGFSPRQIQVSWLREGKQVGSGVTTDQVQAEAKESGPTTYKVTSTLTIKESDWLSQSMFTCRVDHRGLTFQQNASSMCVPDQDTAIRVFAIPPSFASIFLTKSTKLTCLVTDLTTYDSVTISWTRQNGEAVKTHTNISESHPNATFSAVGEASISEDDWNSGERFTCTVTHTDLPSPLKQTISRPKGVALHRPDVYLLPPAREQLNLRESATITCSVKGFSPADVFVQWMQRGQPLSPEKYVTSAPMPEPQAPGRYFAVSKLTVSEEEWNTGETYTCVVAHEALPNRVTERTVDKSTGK
The data set can be described thus: co-transfection in 293F cells, Capture Select IgM immunoprecipitation, non-reducing SDS-PAGE (FIG. 6, lane 2). How it is done:
(§1) IgM was made by co-transfection of several different expression vectors at equal molar ratios into mammalian cells, such as 293F cells (Invitrogen). 10 μg of mixed DNA for expression vectors were mixed with 20 μl of 293Fectin (Invitrogen) for 30 minutes at room temperature in 2 ml of Opti-MEM (Invitrogen) and then added to 10⁷ 293F cells. Transfections with 293F cells were incubated for 72 hours post-transfection before harvesting the supernatant.
(§2) b. Protein purification by immunoprecipitation. [0243] i. Capture Select IgM (Catalog 2890.05, BAC, Thermo Fisher) [0244] Transfected supernatant were harvested by centrifugation at 2,000 G for 10 minutes. IgM proteins were purified by immunoprecipitation with affinity Capture Select IgM affinity matrix. 100 μl of Capture Select IgM slurry were added to 15 ml of harvested supernatant. […] The affinity matrixes were further washed with 60 μl of PBS and the supernatant were pooled for analysis by gel electrophoresis.
(§3) c. Gel electrophoresis [0246] i. Non-reducing SDS Page [0247] Non-reducing SDS PAGE was used to separate various mutant IgM proteins of different molecular weights. Novex 4-12% Bis-Tris Gel (Life Technologies) was used with Novex MES SDS Running Buffer (Life Technologies). [0248] II.

The target in data set [2] is T2, Fc2a (human µ chain CH2 to CH4 region with C291S, T350Y, T354E and I397E mutations and tail piece deletion) (human, UniProt P01871 112-433).
T2 chain: T1 chain with T243Y, S245L, K247E, V288H, K290E
The data set can be described thus: co-transfection in 293F cells, Capture Select IgM immunoprecipitation, non-reducing SDS-PAGE (FIG. 6, lane 3). How it is done:
as §1, §2, §3

Data set [3] deals with the molecule itself. The data set can be described thus: self-association (Fc homodimer); co-transfection of wild-type Okt:Fc in 293F cells, Capture Select IgM immunoprecipitation, non-reducing SDS-PAGE (FIG. 8, lane 1).

Changes are numbered by the printed parent chain. Names and notes keep the numbering of the source.

B1: Rtx2a (µ chain of chimeric Rituxan (anti-CD20) Vh fused with CM1 to CM4 of human µ chain with C291S, T350Y, T354E and I397E mutations and tail piece deletion) … (antibody)
heavy: QVQLQQPGAELVKPGASVKMSCKASGYTFTSYNMHWVKQTPGRGLEWIGAIYPGNGDTSYNQKFKGKATLTADKSSSTAYMQLSSLTSEDSAVYYCARSTYYGGDWYFNVWGAGTTVTVSSGSASAPTLFPLVSCENSPSDTSSVAVGCLAQDFLPDSITFSWKYKNNSDISSTRGFPSVLRGGKYAATSQVLLPSKDVMQGTDEHVVCKVQHPNGNKEKNVPLPVIAELPPKVSVFVPPRDGFFGNPRKSKLICQATGFSPRQIQVSWLREGKQVGSGVTTDQVQAEAKESGPTTYKVTSTLTIKESDWLSQSMFTCRVDHRGLTFQQNASSMCVPDQDTAIRVFAIPPSFASIFLTKSTKLTCLVTDLTTYDSVTISWTRQNGEAVKTHTNISESHPNATFSAVGEASISEDDWNSGERFTCTVTHTDLPSPLKQTISRPKGVALHRPDVYLLPPAREQLNLRESATIYCLVEGFSPADVFVQWMQRGQPLSPEKYVTSAPMPEPQAPGRYFAHSELTVSEEEWNTGETYTCVVAHEALPNRVTERTVDKSTGK
light: QIVLSQSPAILSASPGEKVTMTCRASSSVSYIHWFQQKPGSSPKPWIYATSNLASGVPVRFSGSGSGTSYSLTISRVEAEDAATYYCQQWTSNPPTFGGGTKLEIKRTVAAPSVFIFPPSDEQLKSGTASVVCLLNNFYPREAKVQWKVDNALQSGNSQESVTEQDSKDSTYSLSSTLTLSKADYEKHKVYACEVTHQGLSSPVTKSFNRGEC
notes: One HL half pairs with the partner µ chain
Turning to B1, the binding result in data set [1] is reported as “binds”.

B2: Rtx2b (µ chain of chimeric Rituxan (anti-CD20) Vh fused with CM1 to CM4 of human mu chain with C291S, L352S, T354K, H395V and I397K mutations and tail piece … (antibody)
heavy: B1 heavy with Y471T, L473S, E475K, H516V, E518K
light: B1 light
notes: as for B1
As for B2, the binding result in data set [2] is “binds”.

B3: Fc chain (human IgM µ chain CM2 to CM4, cMyc tag, tail piece replaced by 6His tag, C291S) (other)
chain: GSGSKVSVFVPPRDGFFGNPRKSKLICQATGFSPRQIQVSWLREGKQVGSGVTTDQVQAEAKESGPTTYKVTSTLTIKESDWLSQSMFTCRVDHRGLTFQQNASSMCVPDQDTAIRVFAIPPSFASIFLTKSTKLTCLVTDLTTYDSVTISWTRQNGEAVKTHTNISESHPNATFSAVGEASISEDDWNSGERFTCTVTHTDLPSPLKQTISRPKGVALHRPDVYLLPPAREQLNLRESATITCLVTGFSPADVFVQWMQRGQPLSPEKYVTSAPMPEPQAPGRYFAHSILTVSEEEWNTGETYTCVVAHEALPNRVTERTVDKSTGKGGGSEQKLISEEDLNSAVDHHHHHH
notes: Native CM4 interface; also called wild-type Fc
In the case of B3, in data set [3], the binding result is given as “binds”.
